Experiments:
[1] = molecular target: T1, human MSLN-R1-his protein (human, UniProt Q13421 296-390); experiment: ELISA; antibody 1 nM
T1 construct: also called hMSLN-R1-his; human MSLN-R1 protein; not shown: His tag
T1 chain: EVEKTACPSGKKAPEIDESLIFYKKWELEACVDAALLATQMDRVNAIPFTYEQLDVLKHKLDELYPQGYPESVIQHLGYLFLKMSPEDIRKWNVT

[2] = molecular target: T2, human MSLN-R2-his protein (human, UniProt Q13421 391-486); experiment: ELISA; antibody 1 nM
T2 construct: also called hMSLN-R2-his; not shown: His tag

[3] = molecular target: T3, human MSLN-R3-his protein (human, UniProt Q13421 487-598); experiment: ELISA; antibody 1 nM
T3 construct: also called hMSLN-R3-his; not shown: His tag

[4] = molecular target: T4, human MSLN-FL-his protein (human, UniProt Q13421 296-580); experiment: ELISA; antibody 1 nM
T4 construct: also called hMSLN-FL-his; human MSLN full-length protein; not shown: His tag

[5] = molecular target: T5, human MSLN-FL-his protein (human, UniProt Q13421 296-580); experiment: competitive ELISA; row F2.39.3
T5 construct: made in HEK293E cells, purified on nickel column; also called hMSLN-FL-his; human MSLN full-length protein; not shown: His tag
T5 sequence (Q13421 other isoform, or with tags, fused parts or gaps): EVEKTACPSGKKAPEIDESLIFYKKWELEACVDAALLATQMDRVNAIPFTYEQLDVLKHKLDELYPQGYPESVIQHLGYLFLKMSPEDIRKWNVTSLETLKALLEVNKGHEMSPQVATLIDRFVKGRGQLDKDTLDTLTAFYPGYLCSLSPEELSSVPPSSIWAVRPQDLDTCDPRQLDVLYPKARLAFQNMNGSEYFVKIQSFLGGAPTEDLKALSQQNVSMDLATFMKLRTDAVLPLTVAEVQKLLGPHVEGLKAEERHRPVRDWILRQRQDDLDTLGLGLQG

[6] = molecular target: T5, human MSLN-FL-his protein; experiment: competitive ELISA; row F1.35.24
Description: (§1) In order to identify antigen-binding sites of antibodies, MSLN chimeric antibodies were grouped using competitive ELISA.
(§2) The chimeric antibodies were diluted to 2 μg/mL with PBS and allowed to coat 96-well high-adsorption ELISA plates at 50 μL/well. After the plates were coated at 4° C. overnight, 250 μL of a blocking buffer (PBS containing 2% (w/w) BSA) was added for two hours of blocking at room temperature. 40 μg/mL of the antibodies to be tested were added, and then the human MSLN-FL-His protein with an EC₈₀ concentration corresponding to each of the antibodies to be tested was added for incubation for 2 h. The plates were washed 5 times with PBS, an HRP-labeled anti-His secondary antibody (purchased from Genescript, Cat. No. A00612) was then added for incubation for 1 h, and the plates were washed 5 times again. A TMB substrate was added at 50 μL/well, and after 10 minutes of incubation at room temperature, a stop solution (1.0 M HCl) was added at 50 μL/well. OD₄₅₀ nm values were read using an ELISA plate reader (Insight, purchased from PerkinElmer), and the competition rate between the antibodies was calculated according to the OD₄₅₀ nm values using a formula.

[7] = molecular target: T5, human MSLN-FL-his protein; experiment: competitive ELISA; row Tab108 (R3)
Description: as §1, §2

[8] = molecular target: T5, human MSLN-FL-his protein; experiment: competitive ELISA; row Tab142 (R1)
Description: as §1, §2

T3 sequence (Q13421 495-606): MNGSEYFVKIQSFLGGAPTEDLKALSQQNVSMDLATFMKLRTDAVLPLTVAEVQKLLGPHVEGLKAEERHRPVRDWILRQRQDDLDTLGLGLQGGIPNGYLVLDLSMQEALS
T2 sequence (Q13421 other isoform, or with tags, fused parts or gaps): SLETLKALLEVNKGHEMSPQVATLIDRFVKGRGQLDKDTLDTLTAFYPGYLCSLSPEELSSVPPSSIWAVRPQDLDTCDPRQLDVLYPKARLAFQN

OD450 nm [1]: 0.05
OD450 nm [2]: 0.05
OD450 nm [3]: 0.05
OD450 nm [4]: 1.74
competition rate [5]: -24%
competition rate [6]: 8%
competition rate [7]: -80%
competition rate [8]: -6%
B1: Tab107 (YP3, hIgG1) (antibody, V domains shown)
VH: QEQLVESGGGLVQPGASLTLTCTASGIDFSRYYMCWVRQAPGKGLEGIACIYIGGSGSTYYASWAKGRFTISKASSTTVTLQMTSLTAADTATYFCARGTNLNYIFRLWGPGTLVTVSS
VL: DVVMTQTPSPVSAAVGGTVTIKCQASQSINNGLAWYQQKPGQPPRLLIYSASNLESGVPSRFKGSGSGTEFTLTISDLECDDAATYYCQCIWDGNSYVNAFGGGTEVVVRT
notes: Control antibody; VH and VL recombined into human IgG1 CH and CL expression vectors; also called YP3 human IgG1 antibody

— patent publication US20250250357A1 (NANJING ZAIMING PHARMACEUTICAL, published 2025)
